From patent US6218527 come the findings set out here.

Data set [1] deals with T1, ABF1 (Arabidopsis thaliana) (UniProt Q9M7Q5).
T1 sequence: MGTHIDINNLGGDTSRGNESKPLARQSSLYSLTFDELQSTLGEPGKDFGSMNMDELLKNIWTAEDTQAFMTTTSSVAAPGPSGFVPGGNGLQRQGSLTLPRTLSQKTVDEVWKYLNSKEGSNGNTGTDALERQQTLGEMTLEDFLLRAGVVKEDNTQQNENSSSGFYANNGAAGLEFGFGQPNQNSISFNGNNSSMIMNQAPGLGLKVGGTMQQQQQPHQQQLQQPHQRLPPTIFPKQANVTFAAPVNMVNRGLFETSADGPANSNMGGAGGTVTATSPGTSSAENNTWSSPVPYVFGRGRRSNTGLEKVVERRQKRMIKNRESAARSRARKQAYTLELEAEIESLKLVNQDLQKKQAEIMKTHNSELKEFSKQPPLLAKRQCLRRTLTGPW
In words: one_hybrid.

Data set [2] deals with ABF2 (Arabidopsis thaliana). Kind of data set: one_hybrid.

In data set [1], Em1a trimer reporter gave an activity (fold over control vector) of 6. For the same substance, the activity (fold over background) in data set [2] came out at 2.
